Source: US20250296984A1 (THELPER, published 2025)
Changes are numbered by the printed parent chain. Read-outs that look alike come from different tables or passages of the source.

T1: US28 of HCMV strain TB40/E fused to a C-terminal 6His tag (human cytomegalovirus (HCMV) strain …, UniProt P69332 1-354)
T1 construct: also called TB40/E form of US28
T1 chain: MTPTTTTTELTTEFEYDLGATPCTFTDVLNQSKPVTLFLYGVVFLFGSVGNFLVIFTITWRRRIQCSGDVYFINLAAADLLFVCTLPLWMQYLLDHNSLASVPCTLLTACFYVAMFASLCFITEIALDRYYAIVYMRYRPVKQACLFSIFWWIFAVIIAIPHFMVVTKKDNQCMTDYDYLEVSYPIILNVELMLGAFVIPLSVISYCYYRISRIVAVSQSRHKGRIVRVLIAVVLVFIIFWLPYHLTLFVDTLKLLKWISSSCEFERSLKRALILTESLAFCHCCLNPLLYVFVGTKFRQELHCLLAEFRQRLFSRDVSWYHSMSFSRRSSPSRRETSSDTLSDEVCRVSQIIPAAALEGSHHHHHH

T2: mutated US28 (artificial form with all known US28 mutations) fused to a C-terminal 6His tag (artificial variant of human …, UniProt P69332 1-354)
T2 construct: also called mutated strain; CHO-mutated strain
T2 chain: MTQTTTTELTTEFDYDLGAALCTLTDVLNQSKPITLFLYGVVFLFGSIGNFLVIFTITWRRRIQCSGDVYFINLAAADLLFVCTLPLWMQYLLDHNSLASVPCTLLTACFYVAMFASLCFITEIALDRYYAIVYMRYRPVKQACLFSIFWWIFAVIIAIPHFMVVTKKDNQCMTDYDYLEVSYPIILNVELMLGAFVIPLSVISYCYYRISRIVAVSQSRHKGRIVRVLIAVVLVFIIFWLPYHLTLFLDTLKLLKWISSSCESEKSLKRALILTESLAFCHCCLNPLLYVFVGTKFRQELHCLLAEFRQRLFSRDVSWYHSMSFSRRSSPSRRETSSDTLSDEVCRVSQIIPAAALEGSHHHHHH

T3: US28 of HCMV strain DB fused to a C-terminal 6His tag (human cytomegalovirus (HCMV) strain DB, UniProt P69332 1-354)
T3 chain: T1 chain with T8A, E15D, L18E, G19A, T24V, V49I, D170N

T4: US28 of HCMV strain Ad169 (human cytomegalovirus (HCMV) strain …, UniProt P69332 1-354)
T4 sequence: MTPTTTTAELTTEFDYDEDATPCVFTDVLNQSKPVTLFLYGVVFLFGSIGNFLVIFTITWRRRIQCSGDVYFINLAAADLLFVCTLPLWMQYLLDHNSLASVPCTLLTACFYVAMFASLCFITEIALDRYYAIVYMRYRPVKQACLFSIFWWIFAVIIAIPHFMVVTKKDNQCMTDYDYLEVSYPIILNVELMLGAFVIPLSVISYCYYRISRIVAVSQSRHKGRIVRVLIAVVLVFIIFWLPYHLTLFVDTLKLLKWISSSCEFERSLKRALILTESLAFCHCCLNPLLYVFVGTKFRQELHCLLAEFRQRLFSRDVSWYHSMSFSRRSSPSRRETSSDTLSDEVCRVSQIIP

T5: US28 of HCMV strain Merlin fused to a C-terminal 6His tag (human cytomegalovirus (HCMV) strain …, UniProt F5HF62 1-354)
T5 construct: also called Merlin-encoded US28
T5 sequence: T1 chain with T8A, E15D, L18E, G19D, T24V, V49I, S330G

T6: US28 of HCMV strain VHL/E fused to a C-terminal 6His tag (human cytomegalovirus (HCMV) strain …, UniProt P69332 1-354)
T6 construct: also called VHL/E-encoded US28
T6 chain: T1 chain with T8A, E15D, L18D, G19E, T24V, F25L, V49I, R267K, V346A

B1: US28-13-5G6-1D3 (antibody, V domains shown)
VH: EVKLVESGGGLVQPGGSLRLACATSGFTFTDYYMSWVRQPPGKALEWLGFIRSKANGYTTEYSASVKGRFTISRDNSQSILYLQMNTLRSEDSATYYCARDERRTAWLAYWGQGTLVTVSA
VL: DVLMTQTPLSLPVSLGDQASISCRSSQSIVHSNGNTYLDWYLQKPGQSPKLLIYKVSNRFSGVPDRFSGSGSGTDFTLKISRVEAEDLGVYYCFQGSHVPTWTFGGGTKLEIKR
notes: also called US28-13-5G6-1D3 rAb; 13-5G6-1D3 clone
B2: bivalent VUN100 (VHH)
chain: EVQLVESGGGLVQPGGSLRLACAVSGPGLIFKFTGVAWYRRQVPGAKRGLVALITGDGATRYGDSVKGRFTVSRDIAAKRVYLEMNDLRSEDTAVYYCKTGEYWGQGTQVTVSSGGGGSGGGGSGGGGSGGGGSGGGGSGGGGSEVQLVESGGGLVQPGGSLRLACAVSGPGLIFKFTGVAWYRRQVPGAKRGLVALITGDGATRYGDSVKGRFTVSRDIAAKRVYLEMNDLRSEDTAVYYCKTGEYWGQGTQVTVSSEQKLISEEDLHHHHHH
notes: also called VUN100b; BvVUN100
B3: monovalent VUN100 (VHH)
VHH: EVQLVESGGGLVQPGGSLRLACAVSGPGLIFKFTGVAWYRRQVPGAKRGLVALITGDGATRYGDSVKGRFTVSRDIAAKRVYLEMNDLRSEDTAVYYCKTGEYWGQGTQVTVSS
notes: also called Mv VUN100; VUN100 Ab

How the values were obtained:
[1] = target: T1, US28 of HCMV strain TB40/E fused to a …; assay: flow cytometry, CHO cells (FIG. 21C)
[2] = target: T1, US28 of HCMV strain TB40/E fused to a …; assay: flow cytometry, CHO cells (FIG. 21D)
[3] = target: T2, mutated US28 (artificial form with all …); assay: flow cytometry, CHO cells expressing the mutated US28
[4] = target: T3, US28 of HCMV strain DB fused to a …; assay: flow cytometry, CHO cells expressing US28 of strain DB
[5] = target: T3, US28 of HCMV strain DB fused to a …; assay: flow cytometry, CHO-US28 against control CHO cells
[6] = target: T3, US28 of HCMV strain DB fused to a …; assay: flow cytometry, CHO-US28 against control CHO cells
[7] = target: T1, US28 of HCMV strain TB40/E fused to a …; assay: flow cytometry, CHO cells expressing US28 of strain TB40/E
[8] = target: T4, US28 of HCMV strain Ad169; assay: flow cytometry, HCMV Ad169 infected against Mock MRC-5 cells
[9] = target: T2, mutated US28 (artificial form with all …); assay: flow cytometry, CHO-mutated strain against control CHO cells (FIG. 21B)
[10] = target: T3, US28 of HCMV strain DB fused to a …; assay: flow cytometry, processed data of FIG. 33
[11] = target: T1, US28 of HCMV strain TB40/E fused to a …; assay: flow cytometry, processed data of FIG. 33
[12] = target: T5, US28 of HCMV strain Merlin fused to a …; assay: flow cytometry, processed data of FIG. 33
[13] = target: T6, US28 of HCMV strain VHL/E fused to a …; assay: flow cytometry, processed data of FIG. 33; reference
[14] = target: T3, US28 of HCMV strain DB fused to a …; assay: flow cytometry, transfected HEK Phoenix cells, 6.76 nM
[15] = target: T1, US28 of HCMV strain TB40/E fused to a …; assay: as above
[16] = target: T6, US28 of HCMV strain VHL/E fused to a …; assay: as above
[17] = target: T5, US28 of HCMV strain Merlin fused to a …; assay: as above

Binder | % change in absolute binding between the DB and TB40/E forms [1] | % retention of binding activity between the DB and TB40/E forms [2] | % of cells bound [3] | % of cells bound [4] | binding specificity comparative to the specificity displayed by VUN100 [5] | binding specificity comparative to the specificity displayed by VUN100 [6] | % of cells bound [7] | fold binding, infected over uninfected cells [8] | specificity (US28 cells over control cells) [9] | variation in binding relative to US28 as encoded by VHL/E [10] | variation in binding relative to US28 as encoded by VHL/E [11] | variation in binding relative to US28 as encoded by VHL/E [12] | variation in binding relative to US28 as encoded by VHL/E [13] | binding value (Preliminary Binding Data) [14] | binding value (Preliminary Binding Data) [15] | binding value (Preliminary Binding Data) [16] | binding value (Preliminary Binding Data) [17] | binding result [3]
B1 | < 10% | ~100% | 12.9% | 16.6% | 1.65 fold | 1.65 fold | 18.2% | ~16 fold | ~15 fold |  |  |  |  |  |  |  |  | 
B2 | > 40% | ≤ 60% | 2.58% | 9.24% |  |  | 5.2% |  | 2.43 fold | -2.92 | -14.8 | -2.41 | 0 | 0.62 | 0.16 | 2.29 | 0.71 | 
B3 | > 35% | ≤ 60% | 1.41% | 6.91% |  |  | 4.33% |  | < 1 fold |  |  |  |  |  |  |  |  | no binding
